Read-outs that look alike come from different tables or passages of the source.
Key:
[1] = target: E1 helicase domain of bovine papillomavirus type-1 (BPV-1) E1 (bovine papillomavirus type-1 (BPV-1)); assay: SEC + other: glycerol gradient sedimentation
[2] = target: E1 helicase domain of bovine papillomavirus type-1 (BPV-1) E1 (bovine papillomavirus type-1 (BPV-1)); assay: SEC
[3] = target: T1, E1HD (E1 helicase domain) (bovine papillomavirus type 1 (BPV-1), UniProt P03116 299-605); assay: EMSA
[4] = target: T1, E1HD (E1 helicase domain); assay: EMSA; remark: listed apart in the source
[5] = target: T1, E1HD (E1 helicase domain); assay: EMSA; remark: listed apart in the source
[6] = target: T1, E1HD (E1 helicase domain); assay: gel filtration
[7] = target: T1, E1HD (E1 helicase domain); assay: EMSA; remark: listed apart in the source
[8] = target: T1, E1HD (E1 helicase domain); assay: EMSA; remark: listed apart in the source

T1 sequence (P03116 299-605): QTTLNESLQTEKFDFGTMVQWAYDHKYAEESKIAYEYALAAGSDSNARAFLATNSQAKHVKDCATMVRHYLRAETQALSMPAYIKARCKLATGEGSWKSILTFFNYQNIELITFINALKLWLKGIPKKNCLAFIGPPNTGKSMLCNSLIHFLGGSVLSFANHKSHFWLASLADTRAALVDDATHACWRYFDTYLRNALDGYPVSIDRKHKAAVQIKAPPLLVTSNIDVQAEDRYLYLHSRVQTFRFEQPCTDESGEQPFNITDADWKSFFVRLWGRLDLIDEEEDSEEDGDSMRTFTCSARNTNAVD
Sequence of E1 helicase domain of bovine papillomavirus type-1 (BPV-1) E1 (domain or fragment) (P03116 whole entry, the tested form may be a part): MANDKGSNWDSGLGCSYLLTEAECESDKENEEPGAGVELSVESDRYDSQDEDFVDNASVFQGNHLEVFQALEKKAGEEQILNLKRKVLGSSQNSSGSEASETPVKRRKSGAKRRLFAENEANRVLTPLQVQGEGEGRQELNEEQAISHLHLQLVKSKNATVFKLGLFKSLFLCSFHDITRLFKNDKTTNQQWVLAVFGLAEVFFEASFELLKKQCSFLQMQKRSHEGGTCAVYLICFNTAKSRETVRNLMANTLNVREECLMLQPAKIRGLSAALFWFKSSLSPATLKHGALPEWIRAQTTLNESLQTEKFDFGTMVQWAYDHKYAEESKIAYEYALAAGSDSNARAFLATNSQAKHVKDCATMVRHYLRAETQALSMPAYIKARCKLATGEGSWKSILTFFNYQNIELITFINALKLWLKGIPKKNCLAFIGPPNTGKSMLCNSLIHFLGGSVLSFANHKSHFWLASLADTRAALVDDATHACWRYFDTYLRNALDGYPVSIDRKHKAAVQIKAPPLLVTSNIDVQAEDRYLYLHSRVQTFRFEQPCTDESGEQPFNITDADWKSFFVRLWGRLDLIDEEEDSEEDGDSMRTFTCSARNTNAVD

“E1 helicase domain of bovine papillomavirus type-1 (BPV-1) E1 (domain or fragment)” gave a stoichiometry N [1] of 6, a percent of protein oligomeric [2] of 40% and a stoichiometry N [2] of 6.

TTTTTTTTTTTTTTTTTTTT (ssDNA) [T20]: binds [3].

TTTTTTTTTTTTTTTT (ssDNA) [T16]: binds [3].

TTTTTT (ssDNA) [T6]: no binding [4].

TTTTTTTTTTTTTTTTTTTTTTTTTTTTTTTTTTTTTTTTTT (ssDNA) [T42]: binds [5].

TTTTTTTTTTTTTTTTTT (ssDNA) [T18]: binds [6].

TTTTTTTTTTTTTTTTTTTTTTTTTTTTTT (ssDNA) [T30] gave a Kd [7] of 1830 ± 290 nM and a Kd [8] of 297 ± 7 nM.

Reference: PMC1557793
